Assay results reported in doi:10.1101/2021.10.06.463400.

Target: actin (skeletal muscle thin filament) (mouse (endogenous in psoas myofibrils)) (UniProt P68134)
Assay: cryo-EM structure

stoichiometry, nebulin simple repeat to actin subunit: 1
Substance: nebulin (from UniProt E9Q1W3 1-7152) (natural protein)
